B1: DcuS fused to the T18 or T25 domain of adenylate cyclase (natural protein, E. coli, UniProt P0AEC8 1-543, looked up)
chain: MRHSLPYRMLRKRPMKLSTTVILMVSAVLFSVLLVVHLIYFSQISDMTRDGLANKALAVARTLADSPEIRQGLQKKPQESGIQAIAEAVRKRNDLLFIVVTDMQSLRYSHPEAQRIGQPFKGDDILKALNGEENVAINRGFLAQALRVFTPIYDENHKQIGVVAIGLELSRVTQQINDSRWSIIWSVLFGMLVGLIGTCILVKVLKKILFGLEPYEISTLFEQRQAMLQSIKEGVVAVDDRGEVTLINDAAQELLNYRKSQDDEKLSTLSHSWSQVVDVSEVLRDGTPRRDEEITIKDRLLLINTVPVRSNGVIIGAISTFRDKTEVRKLMQRLDGLVNYADALRERSHEFMNKLHVILGLLHLKSYKQLEDYILKTANNYQEEIGSLLGKIKSPVIAGFLISKINRATDLGHTLILNSESQLPDSGSEDQVATLITTLGNLIENALEALGPEPGGEISVTLHYRHGWLHCEVNDDGPGIAPDKIDHIFDKGVSTKGSERGVGLALVKQQVENLGGSIAVESEPGIFTQFFVQIPWDGERSNR
notes: Membrane embedded sensor histidine kinase DcuS, E. coli; also called DcuS-T18; DcuS-T25; source: bacterial two-hybrid fusion (pUT18 or pKNT25), in E. coli BTH101 (cyaA-); not shown: T18 or T25 domain of Bordetella pertussis adenylate cyclase CyaA, C-terminal, kept
B2: AmtB (ammonium transporter), two-hybrid fusion (natural protein, UniProt P69681 1-428, looked up)
chain: MKIATIKTGLASLAMLPGLVMAAPAVADKADNAFMMICTALVLFMTIPGIALFYGGLIRGKNVLSMLTQVTVTFALVCILWVVYGYSLAFGEGNNFFGNINWLMLKNIELTAVMGSIYQYIHVAFQGSFACITVGLIVGALAERIRFSAVLIFVVVWLTLSYIPIAHMVWGGGLLASHGALDFAGGTVVHINAAIAGLVGAYLIGKRVGFGKEAFKPHNLPMVFTGTAILYIGWFGFNAGSAGTANEIAALAFVNTVVATAAAILGWIFGEWALRGKPSLLGACSGAIAGLVGVTPACGYIGVGGALIIGVVAGLAGLWGVTMLKRLLRVDDPCDVFGVHGVCGIVGCIMTGIFAASSLGGVGFAEGVTMGHQLLVQLESIAITIVWSGVVAFIGYKLADLTVGLRVPEEQEREGLDVNSHGENAYNA
notes: Ammonium transporter AmtB; source: bacterial two-hybrid fusion, in E. coli BTH101 (cyaA-)

What was measured:
[1] = target: T1, DctA fused to the T18 or T25 domain of adenylate cyclase (E. coli, UniProt P0A830 1-428); assay: two-hybrid; bacterial two-hybrid (BTH): T18 and T25 fusions co-transformed in E. coli BTH101 (cyaA-), grown overnight in LB at 30 °C; beta-galactosidase activity; background below 150 Miller units; the reporter strain expresses chromosomal DctA and DcuS; conditions: partners not purified
T1 construct: Aerobic C4-dicarboxylate transport protein DctA, E. coli; also called DctA-T25; DctA-T18; source: bacterial two-hybrid fusion (pUT18 or pKNT25), in E. coli BTH101 (cyaA-); not shown: T18 or T25 domain of Bordetella pertussis adenylate cyclase CyaA, C-terminal, kept
T1 sequence (looked up): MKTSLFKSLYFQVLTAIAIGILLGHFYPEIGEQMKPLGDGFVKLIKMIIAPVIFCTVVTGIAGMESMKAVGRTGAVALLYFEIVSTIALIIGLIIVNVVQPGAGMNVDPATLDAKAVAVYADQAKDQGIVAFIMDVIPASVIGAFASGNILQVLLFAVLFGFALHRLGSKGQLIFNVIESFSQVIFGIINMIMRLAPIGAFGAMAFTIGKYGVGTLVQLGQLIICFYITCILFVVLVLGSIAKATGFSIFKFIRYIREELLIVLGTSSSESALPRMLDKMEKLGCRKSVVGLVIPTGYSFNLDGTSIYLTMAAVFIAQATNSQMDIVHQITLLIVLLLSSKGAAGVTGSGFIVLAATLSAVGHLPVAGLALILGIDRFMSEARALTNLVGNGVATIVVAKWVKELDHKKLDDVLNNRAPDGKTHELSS

[2] = target: T2, DauA fused to the T18 or T25 domain of adenylate cyclase (E. coli, UniProt P0AFR2 1-559); assay: as above; conditions: partners not purified
T2 construct: C4-dicarboxylic acid transporter DauA (previously YchM), E. coli; Stood with T18 and with T25 in reciprocal pairings; one molecule for both; also called DauA-T18; DauA-T25; source: bacterial two-hybrid fusion (pUT18 or pKNT25), in E. coli BTH101 (cyaA-); not shown: T18 or T25 domain of Bordetella pertussis adenylate cyclase CyaA, C-terminal, kept
T2 sequence (looked up): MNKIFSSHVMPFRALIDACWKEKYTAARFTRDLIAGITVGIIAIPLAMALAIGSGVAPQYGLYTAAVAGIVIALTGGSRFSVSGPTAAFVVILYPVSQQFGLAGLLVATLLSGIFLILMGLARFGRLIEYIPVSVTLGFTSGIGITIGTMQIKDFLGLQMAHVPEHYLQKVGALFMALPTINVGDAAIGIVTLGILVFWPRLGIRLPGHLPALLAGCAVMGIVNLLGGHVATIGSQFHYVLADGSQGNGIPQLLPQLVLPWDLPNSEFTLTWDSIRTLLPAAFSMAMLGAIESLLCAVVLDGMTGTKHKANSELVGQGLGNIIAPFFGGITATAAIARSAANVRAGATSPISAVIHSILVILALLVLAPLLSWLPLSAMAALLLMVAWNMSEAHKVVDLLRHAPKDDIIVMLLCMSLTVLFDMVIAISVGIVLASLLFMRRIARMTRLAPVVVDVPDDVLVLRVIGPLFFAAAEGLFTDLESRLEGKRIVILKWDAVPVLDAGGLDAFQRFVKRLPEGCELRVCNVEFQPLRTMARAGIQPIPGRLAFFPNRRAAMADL

| Binder | beta-galactosidase activity [1] | beta-galactosidase activity [2] |
| --- | --- | --- |
| B1 | 252 Miller units | – |
| B2 | – | < 150 Miller units |
